Source: patent US20240269276A1 (HARBOUR BIOMED SHANGHAI, published 2024)

T1: human CD73 on CHO-K1 cells overexpressing human CD73 (human, UniProt P21589 27-549)
T1 construct: whole, on cells; also called CHO-K1-hCD73
T1 sequence (looked up): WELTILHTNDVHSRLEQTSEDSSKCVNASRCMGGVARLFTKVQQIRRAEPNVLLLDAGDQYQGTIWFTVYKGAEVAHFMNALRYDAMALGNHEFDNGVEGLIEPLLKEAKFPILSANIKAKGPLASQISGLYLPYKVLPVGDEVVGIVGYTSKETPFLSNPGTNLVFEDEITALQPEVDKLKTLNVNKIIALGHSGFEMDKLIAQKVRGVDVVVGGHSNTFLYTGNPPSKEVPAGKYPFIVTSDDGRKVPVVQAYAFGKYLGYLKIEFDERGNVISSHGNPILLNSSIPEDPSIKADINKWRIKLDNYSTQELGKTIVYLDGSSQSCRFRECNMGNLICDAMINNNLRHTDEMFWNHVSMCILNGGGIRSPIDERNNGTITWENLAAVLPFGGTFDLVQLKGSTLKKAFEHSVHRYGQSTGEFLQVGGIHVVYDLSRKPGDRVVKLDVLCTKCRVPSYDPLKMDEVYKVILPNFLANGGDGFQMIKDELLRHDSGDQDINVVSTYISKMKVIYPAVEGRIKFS


Molecular target: T1, human CD73 on CHO-K1 cells …
Experiment: flow cytometry on CHO-K1 cells overexpressing human CD73 (CHO-K1-hCD73)
Protocol: In order to investigate the binding activity of the CD73×PD-L1 bispecific antibody to human CD73 and PD-L1, the binding experiment at the cellular level was performed using CHO-K1 cell strains overexpressing human CD73 or PD-L1 (CHO-K1-hCD73 or CHO-K1-hPD-L1). Briefly, the CHO-K1-hCD73 and CHO-K1-hPD-L1 cells were digested and resuspended in an F-12K complete medium, and the cell density was adjusted to 1×10⁶ cells/mL. The cells were seeded in a 96-well V-bottom plate (Corning, #3894) at 100 μL/well, followed by the addition at 100 μL/well and centrifugation at 500 g at 4° C. for 5 min, and then the supernatant was discarded. Antibodies were 3-fold diluted to a maximum final concentration of 50 nM, and a total of 8 concentrations were set. 100 μL of the diluted antibodies was added to the cells, and the cells were incubated away from light at 4° C for 1 h. Thereafter, the cells in each well were rinsed twice with 100 μL of pre-cooled PBS, and centrifuged at 500 g at 4° C. for 5 min, and then the supernatant was discarded. Then 100 μL of a fluorescent secondary antibody (goat anti-human IgG (H+L) secondary antibody, Alexa Fluor® 488 conjugate, Invitrogen, #A11013, diluted at the ratio of 1:1000) was added to each well. The plate was incubated away from light at 4° C. for 30 min. The cells in each well were then rinsed twice with 200 μL of pre-cooled PBS and centrifuged at 500 g at 4° C. for 5 min, and then the supernatant was discarded. Finally, the cells in each well were resuspended in 200 μL of pre-cooled PBS, and the fluorescence signal values were read using a BD FACS CANTOII.

EC50 [nM]	Binder
1.1	PR003836 (antibody, human IgG1, kappa, L234A L235A, V domains shown, Anti-CD73 IgG (human IgG1 constant region, human Ig kappa), PTM removed; also called anti-CD73 antibody PR003836; anti-CD73 H2L2 antibody) VH: QVQLVESGGGVVQPGRSLRLSCAASGFTFSSYDMHWVRQAPGKGLEWVASTWYDASKKYYADSVKGRFTISRDNSKNTLYLQMNSLRAEDTAVYYCAKGGDLLTGPNAFDIWGQGTMVTVSS VL: DIQMTQSPSTLSASVGDRVTITCRASQSISSWLAWYQQKPGKAPKLLIYKASSLESGVPSRFSGSGSGTEFTLTISSLQPDDFATYYCQQYDNYENTFGQGTKLEIKR
0.342	PR001408 (antibody, human IgG1, kappa, L234A L235A, V domains shown, Anti-CD73 IgG (human IgG1 constant region, human Ig kappa), PTM removed; also called anti-CD73 antibody PR001408; anti-CD73 H2L2 antibody) VH: QVQLVESGGGVVQPGRSLRLSCAASGFTFYSYGMHWVRQTPGKGLEWVALIWYDGSNNYYADSVKGRFTISRDNSKNTLYLQMNSLRAEDTAVYYCATERSSSFYYYYGMDVWGQGTTVTVSS VL: DIQLTQSPSFLSTSVGDRVTITCRASQGISSYLAWYQQKPGKAPKLLIYAASTLQSGVPSRFSGSGSGTEFTLTISSLQPEDFATYYCQQLNSYPYTFGQGTELEIKR
